# Test results: patent publication US20260258115A1
# Biological target: RSV prefusion F (preF, DS-Cav1) (Respiratory syncytial virus)
# Experiment: BLI, IgG on sensor, 100 nM antigen
row,Binder,Kd
1,"ADI-41237 (antibody, V domains shown) VH: EVQLVESGGGLVKPGGSLRLSCAASGFTFSDYYMNWIRQAPGKGLEWVSDISPSSSYTNYADSVKGRFTISRDNAKNSLYLQMNSLRAEDTAMYYCARRGSCTGGVCSFDYWGQGTLVTVSS VL: QPGLTQPPSVSGAPGQRVTISCTGSSSNIGAGYDVNWYQQLPGTAPKLLIYDNSNRPSGVPDRFSGSKSGTSASLAITGLQAEDEADFYCQSYDSSLSGFVFGTGTKVTVL",0.794 nM
2,"ADI-41238 (antibody, V domains shown) VH: EVQLLESGGGLVKPGGSLRLSCAASGFTFRDYYMSWIRQAPGKGLEWVSYISSSSSYTEYADSVKGRFTISRDNAKKSLYLQMNSLRTEDTAVYYCARVITQAGTGTTYYMDVWGKGTTVTVSS VL: QSVLTQPPSVSGAPGQRVTISCTGSSSNIGTGYDVHWYQQLPGTAPKLLIYANNNRPSGVPDRFSGSKSGTSASLAITGLQAEDEADYYCQSYDSSLSLVFGGGTKLTVL",1.03 nM
3,"ADI-41245 (antibody, V domains shown) VH: QVQLVESGGGLVKPGGSLRLSCAASGFSFSAYYMSWIRQAPGKGLEWISNISGGSSYANYADSVEGRFTISRDNAKNSLYLQMNSLRAEDTAVYYCAREFQTYYYMDVWGKGTTVTVSS VL: QPVLTQPPSVSGAPGQRVTISCTGSSSNIGAGYEVHWYQQLPGTAPKLLIYGNNNRPSGVPDRFSGSKSGTSASLAITGLQAEDEADYYCQSYDSSLSGSVFGGGTKLTVL",0.775 nM
4,"ADI-41246 (antibody, V domains shown) VH: EVQLLESGPGLVKPSETLSLTCIVSGGSISSYNWNWIRQPPGKGLEWIGYIYNSGSTNYNPSLKSRVTISVDTSKNQFSLKLSSVTAADTAVYYCARYFDYGSGGFDYWGQGTLVTVSS VL: ETTLTQSPGTLSLSPGERATLSCRASQSVTSTYLAWYQQKPGQAPRLLIYGASSRATGIPDRFSGSGSGTDFTLTISRLEPEDFAVYYCQQFDSSLTFGGGTKVEIK",3.08 nM
5,"ADI-41251 (antibody, V domains shown) VH: EVQLVESGGGLVKPGGSLRLSCAASGFTFSDYYMTWIRQAPGKGLEWVSNISGGSSYTNYADSVKGRFTISRDNAKNSVYLQMNSLRAEDTAVYYCARVGCSGGVCNFFLDYWGQGTLVTVSS VL: QSVLTQPPSVSGAPGQRVTISCTGSSSNIGAGYDVHWYQQLPGTAPKLLIYDNTNRPSGVPDRFSGSKSGTSASLAITGLQAEDEADYYCQSYDSSLSGYVFGTGTKVTVL",0.593 nM
6,"ADI-41253 (antibody, V domains shown) VH: EVQLVQSGPGLVKPSETLSLTCTVSGDSISSSDYSYYWGWIRQPPGKGLEWIASLSYSGKTYSQSSLKSRVIISVDTSKKQFSLKLSSVTAADTAVYYCAVTRCYVCTSEGDSFDMWGQGTMVTVSS VL: DIVLTQTPGTLSLSPGERATLSCRASQSISGNYLAWYQHKPGQAPRLLIYGASTRATGIPDRFSGSGSGTDFPLTISRLEPEDFAVYYCQQYATSPYTFGQGTKVDIK",1.11 nM
7,"ADI-41254 (antibody, V domains shown) VH: EVQLVESGGGLVQSGGSLRLSCAASGFTFSSYEMNWVRQAPGKGLEWVSYTTNNGRTIYYADSVKGRFTISRDNAKNSLFLQMNGLRAEDTAVYYCARGIQFSRVDYAMDVWGQGTTVTVSS VL: SYELTQPPSVSGTPGQRITISCSGSSSNIASNTVNWYQHLPGTAPKLLIYSDNQRPSGVPDRFSGSKSGTSASLAISGLQSEDEADYYCAIWDDSLNASYVFGTGTKLTVL",0.776 nM
8,"ADI-41257 (antibody, V domains shown) VH: QVQLVESGAEVKKPGSSVKVSCKASEGTFSSYGISWVRQAPGQGPEWMGEINPMFGTAKYAQKFQGRVTITVDESTSTADMELSSLTSEDTAVYYCAREFLGQCSETNCPTPSRHLDYWGQGTLVTVSS VL: EIVMTQSPSSLSASVGDRVTITCRASRTISSYLNWYQQKPGKAPKLLIYATSNLQSGVPSRFSGSGSGADFTLTISSLQPEDFATYYCQQTYSTPGFGPGTKVDIK",3.81 nM
9,"ADI-41258 (antibody, V domains shown) VH: QVQLVQSGGGLVQRGGSLRLSCAASGFSFRSYAMSWVRQAPGKGLEWVSSISDSGDNTFYADSVKGRFSISRDNSRDTLYLQMNSLRAEDTAVYYCARGGYCSGGNCFPFDYWGQGTLVTVSS VL: SYELMQLPSVSVSPGQTARITCSGDALPKQYGYWYQQKPGQAPVLVIYKDSERPSGIPERFSGSSSGTTVTLTISGVQAEDEADYYCQSADSGGTYVMFGGGTKLTVL",0.968 nM
10,"ADI-41266 (antibody, V domains shown) VH: QVQLQQSGPGLVKPSQTLSLTCAISGDSVSSNSAAWNWIRQSPSRGLEWLGRTYYRSKWYNDYAVSVKSRITINPDTSKNQFSLQLNSVTPEDTAVYYCARDLPQVDYFDGASFYFFDFWGQGTLVTVSS VL: QPVLTQPPSVSVAPGQTASITCGGNIIGNKGVHWYQQKPGRAPVLVVYDDSDRPSGIPERFSGSNSGNTATLTISRVEAADEADYYCQVWDTGSHPVVFGGGTKVTVL",4.06 nM
11,"ADI-41268 (antibody, V domains shown) VH: EVQLVESGGGLVKPGGSLRLSCVASGFGFTSYSMNWVRQAPGKGLEWVSSISASSTYIHYADSVKGRFTISRDNARNSLYLQMISLRADDTAVYYCSRDGPTYGSGVHVWGQGTMVTVSS VL: QSALIQPVSVSGSPGQSITISCTGTRSDVGGYNYVSWYQQHPGKAPKLMIYEVRNRPSGVSDRFSGSKSGNTASLTISGLQAEDEGDYYCSSYTSSDTLFYVFGSGTKLTVL",0.581 nM
12,"ADI-41288 (antibody, V domains shown) VH: EVQLVESGGGLVQPGGSLRLSCAASGFTFSSYAMSWVRQAAGKGLEWVSAISGSGDDTFYADSVKDRFIISRDSSKRKVYLQMNSLRVEDTAVYYCAKTDIMVTFGGVVVDAYYFDHWGQGTLVTVSS VL: ETTLTQSPGTLSLSPGERATLSCRASQFVFRSYLAWYQQRPGQPPRLLIYGASSRATGIPDRFSGRGSGTEFTLTISRLEPEDFAMYYCQHYDSSPPGTFGGGTKVEIK",8.99 nM
13,"ADI-41294 (antibody, V domains shown) VH: EVQLLESGGGLVQPGGSLRLSCAASGFTFSAYEMNWVRQAPGKGLEWVSYISSSGSNKHYADSVKGRFTISRDNAKNSLHLHMNSLRAEDTALYYCTRPHQEEWELLPNDAFDLWGQGTMVTVSS VL: QSALTQPPSASGSPGQSVTISCTGTSTDVGAYTYVSWYQQHPGKAPKLIIYEVYKRPSGVPNRFFGSKSGNTASLTVSGLQAEDEADYYCSSYGGSNNFGLFGGGTKLIVL",0.512 nM
14,"ADI-41296 (antibody, V domains shown) VH: EVQLVESGVEVKKPGESLKISCRGSGYTFYNYWIAWVRQKPGKGLEYMGTIYLDDSETIYSPSFQGEVTISADKSINTAYLQWNSLKASDTANYYCARQMDFYFDVWGRGTLVTVSS VL: SYELMQPPSVSVSPGQTARITCSGDPLPRESAYWYQQKPGQAPVVIIFNDIERPLGIPERFSGSRSGTTVTLTISGAQAEDEADYYCQSADSRKTFVFGTGTKLTVL",3.35 nM
15,"ADI-41310 (antibody, V domains shown) VH: QVQLVQSGVEVKKPGESLKISCRGSGYSFYNYWIAWVRQKPGKGLEYMGTIYLDDSDTIYSPSFQGEVTISADKSINTAYLQWNSLKASDTANYYCARQMDFYFDVWGRGTLVTVSS VL: SYELTQPPSVSVSPGQTARITCSGDPLPRESAYWYQQKPGQAPVVVIFNDIERPLGIPGRFSGSRSGATATLTINGAQAEDEADYYCQSADSRKTFVFGAGTKLTVL",3.32 nM
16,"ADI-41317 (antibody, V domains shown) VH: EVQLVESGGGLVQPGGSLRLSCEASRFKFSTFWMAWVRQAPGKGLEWVANIKQDGSETYYLDSVKGRFTISRDNAKNSLFLQMKSLRAEDTAVYYCAGLWWGDLENWFDPWGQGTLVTVSS VL: QSVLTQPPSVSGAPGQRVTISCTGSSSNLGTGFDVHWYRQLPGTAPQLLIYGSTNRPSGVPDRFSGSKYGTSASLAITGLQAEDEADYYCQSYDSNLRAYVFGTVTKVTVL",48.2 nM
17,"ADI-41320 (antibody, V domains shown) VH: QVQLVQSGVEVKKPGESLKISCRGFGYSAYNYWIAWVRQKPGKGLEYMGTIYLDDSDTIYSPSFQGEVTISADRSINTAYLQWNSLKASDTANYYCARQMDFYFDVWGRGTLVTVSS VL: QSVLTQPPSVSVSPGQTARITCSGDPLPRESAYWYQQKPGQAPVVVIFNDIERPLGIPARFSGSRSGTTVTLTISGAQAEDEADYYCQSADSRKTFVFGPGTKLTVL",3.2 nM
18,"ADI-41322 (antibody, V domains shown) VH: QVQLVQSGAEVKKPGSSVRVSCKASGGSFSSYATSWVRQAPGQGLEWMGGIIPMYDAVNYAQKFQGRVTITADESTTTAYMELSSLRSEDTAVYYCARSSGYTGTNFFDYWGQGTLVTVSS VL: DIQMTQSPSSVSASVGDRVTITCRASQDISSWLAWYQQKPGKAPKLLIYTASSLQSGVPSRFSGSGSGTDFTLTISRLQPEDFATYYCQQANSFPRVTFGGGTKVEIK",2.98 nM
19,"ADI-41340 (antibody, V domains shown) VH: QVQLVQSGAEVKTPGSSVKVSCKASGGTFRSYPITWVRQAPGQGLEWMGTVIPVFDTVNYAPKFQGRVSITADESTNTAYMELSSLRSDDSAVYYCARDLGWLRPMTTVTSPHFDYWGQGTLVTVSS VL: QSVLTQPASVSGSPGQSITISCTGTSSDVGGYDFVSWYQQHPGKAPKLMISEVTDRPSGVSNRFSGSKSGNTASLTISGLQAEDEADYYCTSYTSSRTYVFGTGTKLTVL",3.51 nM
20,"ADI-41343 (antibody, V domains shown) VH: EVQLVESGGGLVKPGGSLRLSCAASGFTFSSYYMNWVRQAPGKGLEWVSSISGGSSYISYADSVKGRFTISRDNAKNSLYLQMNSLRAEDTAVYYCARVDTPMVRGYYFDYWGQGTLVTVSS VL: QSVLTQPPSVSGAPGRRVTISCTGSSSNIGAGYDVHWYQQLPGTAPKLLIFANSNRPSGVPDRFSGSKSGTSASLAITGLQAEDEADYYCQSYDSSLSGSVFGGGTKVTVL",0.721 nM
21,"ADI-41349 (antibody, V domains shown) VH: EVQLLESGGGLVQPGRSLRLSCTGSGFTFGDYAMNWVRQAPGKGLEWVGLIRSKDYGGTTEFAASLKGRLTISRDDSKSIAYLQMHSLKTEDSAVYYCTRAHLTDYTDINGYQYYFDYWGQGSPVTVSS VL: DIQMTQSPSSLSASVGDRVTITCQASQDISNFLNWYQQRPGKAPKLLIHDASNLETGVPSRFSGSGSRTEFTFTISSLQPEDIGTYYCQHYDNFPYTFGQGTKVEIK",6.25 nM
